Data on one substance can be found in patent US20080226630A1.

The target of the assay is RSV protein F (recombinant or purified F protein) (human respiratory syncytial virus, strain not stated). Nature of the assay: SPR Biacore 3000, Fab over amine-coupled recombinant protein F. Background: SPR reads the build-up and loss of mass on a sensor chip optically.

As a reminder, the Kd is the constant that tells how readily two partners part at equilibrium. By koff is commonly meant the first-order rate constant of dissociation. The term kon denotes the second-order rate constant of association. As for “Fab fragment derived from commercially available Palivizumab (Synagis)”, the Kd was 3.78 nM, the koff came out at 0.000757 s⁻¹, the on-rate (kon) worked out at 200000 M⁻¹ s⁻¹ and the t1/2 was found to be 15 min.
